From US20260069689A1 (Regeneron, published 2026) come the findings set out here.

The assay addresses SARS-COV-2 RBD extracellular domain expressed with a C-terminal myc-myc-hexahistidine tag (SARS-COV-2 RBD-mmH) (SARS-CoV-2). Description: SPR Biacore, mAb captured on anti-hFc, RBD-mmH analyte, 37 C. (In general: SPR reads the build-up and loss of mass on a sensor chip optically.)

B1: mAb15156 (antibody, V domains shown)
VH: QLQLQESGPGLVKSSETLSLTCTVSASITGSTYYWGWIRQPPGKGLEWIGSIYYSGTTYYKASLKSRVTISVDTSKNQFSLKLTSVTVADTAVYYCVSHLLGNYHKYGMDVWGQGTTVTVSS
VL: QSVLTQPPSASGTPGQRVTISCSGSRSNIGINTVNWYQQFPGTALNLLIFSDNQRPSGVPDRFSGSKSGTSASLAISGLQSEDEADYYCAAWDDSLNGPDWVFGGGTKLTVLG
B1 displayed a Kd of 14.4 nM, a koff of 0.00535 s⁻¹, a kon of 373000 M⁻¹ s⁻¹ and a t½ of 132 s.

B2: mAb14285 (antibody, V domains shown)
VH: QVQLVQSGAEVKKPGASVKVSCKASGYTFTGYFIHWVRQAPGQGLEWMGWISPISGGTNYAQKFQGRVTVTRDTSITTAYMELSRLTSDDTAVYHCAREGGTWKGDFDYWGQGTLVTVSS
VL: QSALTQPASVSGSPGQSITISCTGTSSDVESYNLVSWYQQHPGKAPKLMIYEGSKRPSGVSNRFSGSKSGNTASLTISGLQAEDEADYYCSSYAGSSTWVFGGGTKLTVLG
The molecule B2 came in with a dissociation constant (Kd) of 13.1 nM, a koff of 0.0274 s⁻¹, a kon of 2.09e+06 M⁻¹ s⁻¹ and a t½ of 24 s.

B3: mAb14256 (antibody, V domains shown)
VH: QVQLQESGPGLVKPSETLSLTCTVSGGSISSHYWSWIRQPPGKGLEWIGYIYYSGSSNYNPSLKSRVTISVDTSKNQFSLKLNSVTAADTAVYYCARHYDILTGFDWFDPWGQGTLVTVSS
VL: QSVLTQPPSVSGAPGQRVTISCTGSSSNIGTHYDVHWYQQLPGTAPKLLIYGNSNRPSGVPDRFSGSKSGTSASLAITGLQAEDEADYYCQSFDNSLTAPYVFGTGTKVTVLG
B3 gave a Kd of 8.24 nM, a koff of 0.0115 s⁻¹, a kon of 1.4e+06 M⁻¹ s⁻¹ and a t½ of 60 s.

B4: mAb14234 (antibody, V domains shown)
VH: QVQLVESGGGVVQPGRSLRLSCAASGFTFSSYGIHWVRQAPGKGLEWVAIIWYDGSEKYYADSVKGRFTISRDNSKNTLFLQMNSLEAEDTAVYYCARGPDLLTGYYNYFYYGMDVWGQGTTVTVSS
VL: QSVLTQPPSVSGAPGQRVTISCTGSSSNIGIGYDVHWYQQLPGTVPKLLIYGNTNRPSGVPDRFSGSKSGTSASLAITGLQAEDEADYYCQSYDSSLSSYVFGTGTKVTVLG
B4 had a Kd of 22.3 nM, a koff of 0.0119 s⁻¹, a kon of 534000 M⁻¹ s⁻¹ and a t½ of 60 s.

B5: mAb14280 (antibody, V domains shown)
VH: QVQLVQSGAEVKKPGASVRVSCKASGYTFTGNYIHWVRQAPGQGLEWMAWINPNSGGKNYAQKFQGRVTLTRDTSVNTAYMELSRLRSDDTAMYYCARDVNYNILTGPGGLWGQGTLVTVSS
VL: QSALTQPPSASGSPGQSVTISCTGTSSDVGGYNFVSWYQQHPGKAPKLMIYEVSKRPSGVPDRFSGSKSGNTASLTVSGLQAEDEADYYCSSYAGSNNFVFGTGTKVTVLG
As for B5, the dissociation constant Kd worked out at 16.2 nM, the koff is 0.0248 s⁻¹, the kon turned out to be 1.53e+06 M⁻¹ s⁻¹ and the t½ is 30 s.

B6: mAb14232 (antibody, V domains shown)
VH: QITLKESGPTLVKPTQTLTLTCTFSGFSLSASGVGVGWIRQPPGKALEWLALIYWDDDKRYSPSLKSRLTITKDTSKNQVVLTMTNMDPVDTATYYCAQHKVATIFDYWGQGTLVTVSS
VL: QSALTQPPSASGSPGQSVTISCTATSSDVGNYNYVSWYQQHPGKAPKLMIYEVTKRPSGVPDRFSGSKSGNTASLTVSGLQAEDEADYYCSSYAGSWGVFGGGTKLTVLG
With B6, the Kd was found to be 7.92 nM, the koff worked out at 0.0372 s⁻¹, the kon is 4.69e+06 M⁻¹ s⁻¹ and the t½ was found to be 18 s.

B7: mAb14292 (antibody, V domains shown)
VH: EVQLVESGGGLVQPGGSLRLSCVASGFAFSTYEMNWVRQAPGKGLEWVSYISSSGSTIYYADSVKGRLTISRDNVKNSLYLQMNSLRVEDTAIYYCARDAIRNNDILTDPATFDPWGQGTLVTVSS
VL: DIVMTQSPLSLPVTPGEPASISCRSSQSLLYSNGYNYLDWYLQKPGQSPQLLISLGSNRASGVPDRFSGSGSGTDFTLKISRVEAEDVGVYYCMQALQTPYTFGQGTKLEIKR
Consider B7, for which binding was characterised by a dissociation constant (Kd) of 60.7 nM, the koff stood at 0.0218 s⁻¹, the kon was determined as 359000 M⁻¹ s⁻¹ and the t½ was 30 s.

In general, Kd refers to the free concentration of one partner at which half of the binding sites on the other are occupied at equilibrium, for simple one-to-one binding. A higher Kd goes with weaker binding. Broadly, the koff is the rate constant with which the complex falls apart. Low values mean slow dissociation, high ones fast dissociation. A word on the kon: it is the second-order rate constant of association. Low values mean slow association, high ones fast association. What is called t½ is the time in which the quantity being followed falls by half. High values mean slow loss, low ones fast loss.
